Test results taken from patent US20230002499A1, “METHODS OF CANCER TREATMENT WITH ANTI-OX40 ANTIBODY IN COMBINATION WITH CHEMOTHERAPEUTIC AGENTS” (BeiGene (Beijing) Co., Ltd., priority 2019, published 2023).

T1: full-length human OX40 expressed on HuT78/OX40 cells (human, UniProt P43489 29-277)
T1 sequence: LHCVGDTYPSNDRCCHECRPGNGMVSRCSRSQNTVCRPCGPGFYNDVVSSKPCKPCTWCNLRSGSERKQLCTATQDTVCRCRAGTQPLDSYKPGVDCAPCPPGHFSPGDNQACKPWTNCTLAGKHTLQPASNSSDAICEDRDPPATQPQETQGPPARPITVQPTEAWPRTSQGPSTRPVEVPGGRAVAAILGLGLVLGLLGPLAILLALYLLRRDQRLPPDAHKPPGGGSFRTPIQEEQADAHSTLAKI


Columns and labels:
[1] = molecular target: T1, full-length human OX40 expressed on …; assay: flow cytometry on live HuT78/OX40 cells; top of fitted curve
Protocol: To evaluate the binding activity of anti-OX40 antibodies to bind OX40 expressed on the surface of live cells, HuT78 cells were transfected with human OX40 as described in Example 1 to create an OX40 expressing line. Live HuT78/OX40 cells were seeded in 96-well plate and were incubated with a serial dilution of various anti-OX40 antibodies. Goat anti-Human IgG-FITC (Cat: A0556, Beyotime) was used as a secondary antibody to detect antibody binding to the cell surface. EC₅₀ values for dose-dependent binding to human OX40 were determined by fitting the dose-response data to the four-parameter logistic model with GraphPad Prism.

[2] = tested on: CT26WT cells, a murine colon carcinoma cell line; assay: CT26WT syngeneic mouse model, OX86 in combination with Oxaplatin/5-Fu; format: in vivo; settings: OX86 0.08 mg/kg QW i.p.; Oxaplatin 1.5 mg/kg QW i.p.; 5-Fu 15 mg/kg once daily five days per week i.p.
Protocol: Female BALB/c mice were subcutaneously implanted with 1×10^5 CT26WT cells, a murine colon carcinoma cell line, in 150 μL PBS in the right flank. After inoculation, the mice were randomized into 4 groups with 20 animals in each group. Mice were treated with vehicle as a control.
OX86 is a rat anti-mouse OX40 antibody previously disclosed in WO2016/057667, which was further engineered with mouse IgG2a constant regions in order to reduce its immunogenicity and also keep its Fc-mediated functions in mouse studies. The VH and VL regions of OX86 are provided below. […] As monotherapy, OX86 was administered at 0.08 mg/kg once per week (QW) by intraperitoneal (i.p.) injection.
Oxaplatin/5-Fluorouracil (5-Fu) was administered as a single agent to the mice. The OX86 antibody in combination with Oxaplatin/5-Fu was administered as combination therapy. OX86 (0.08 mg/kg) was administered once per week by intraperitoneal (i.p.) injection. Oxaplatin (1.5 mg/kg) was also dosed once per week (QW) intraperitoneally, and 5-Fu was given at 15 mg/kg once daily for five consecutive days per week by i.p. injection. […] Tumor volume was determined twice weekly in two dimensions by using a caliper and was expressed in mm^3 using the formula: V=0.5(a×b^2) where a and b are the long and short diameters of the tumor, respectively. […] Tumor growth inhibition (TGI) is calculated using the following formula: […]

Molecule	Top (MFI), Mean [1] [MFI]	Mean Tumor Volume on Day 11 (Mean ± SEM) [2] [mm^3]	TGI (%) on Day 11 [2] [%]
445-2 (antibody, human IgG1, V domains shown) VH: QVQLVQSGAEVKKPGSSVKVSCKASGYKFTSYIIHWVRQAPGQGLEWMGYINPYNEGTRYAQKFQGRVTLTADKSTSTAYMELSSLRSEDTAVYYCARGYYGSSYAMDYWGQGTTVTVSS VL: DIQMTQSPSSLSASVGDRVTITCSASQGISNYLNWYQQKPGKAIKLLIYDASTLYSGVPSRFSGSGSGTDFTLTISSLQPEDFATYYCQQYSKLPYTFGGGTKVEIK	620		
445-1 (antibody, IgG1, V domains shown, Full-length antibody with human wild-type IgG1 (IgG1wt) and kappa constant regions) VH: QVQLVQSGAEVKKPGSSVKVSCKASGYKFTSYIIHWVRQAPGQGLEWMGYINPYNDGTRYNQKFQGRVTLTSDKSTSTAYMELSSLRSEDTAVYYCARGYYGSSYAMDYWGQGTTVTVSS VL: DIQMTQSPSSLSASVGDRVTITCSASQGISNYLNWYQQKPGKAIKLLIYDTSTLYSGVPSRFSGSGSGTDYTLTISSLQPEDFATYYCQQYSKLPYTFGGGTKVEIK	525		
OX86: rat anti-mouse OX40 antibody disclosed in WO2016/057667, engineered with mouse IgG2a constant regions; VH SEQ ID NO: 32, VL SEQ ID NO: 33 (antibody, V domains shown, mouse IgG2a constant regions) VH: QVQLKESGPGLVQPSQTLSLTCTVSGFSLTGYNLHWVRQPPGKGLEWMGRMRYDGDTYYNSVLKSRLSISRDTSKNQVFLKMNSLQTDDTAIYYCTRDGRGDSFDYWGQGVMVTVSS VL: DIVMTQGALPNPVPSGESASITCRSSQSLVYKDGQTYLNWFLQRPGQSPQLLTYWMSTRASGVSDRFSGSGSGTYFTLKISRVRAEDAGVYYCQQVREYPFTFGSGTKLEIK		969.2 ± 229.0	48

Further lines, with some results ahead:

Top (MFI), Mean [1] [MFI]	Molecule	Mean Tumor Volume on Day 11 (Mean ± SEM) [2] [mm^3]	TGI (%) on Day 11 [2] [%]
725	ch445 (antibody, V domains shown) VH: EVQLQQSGPELVKPGASVKMSCKASGYKFTSYIIHWVKQKPGQGLEWIGYINPYNDGTRYNEKFKGKATLTSDKSSSTAYMEYSSLTSEDSAVYYCARGYYGSSYAMDYWGQGTSVTVSS VL: DIQMTQTTSSLSASLGDRVTISCSASQGISNYLNWYQQKPDGTIKLLIYDTSTLYSGVPSRFSGSGSGTDYFLTISNLEPEDIATYYCQQYSKLPYTFGGGTKLEKK		
910	445-3 (antibody, human IgG1, V domains shown, Human IgG1 wild type format) VH: QVQLVQSGAEVKKPGSSVKVSCKASGYKFTSYIIHWVRQAPGQGLEWMGYINPYNEGTRYNQKFQGRVTLTADKSTSTAYMELSSLRSEDTAVYYCARGYYGSSYAMDYWGQGTTVTVSS VL: DIQMTQSPSSLSASVGDRVTITCRASQGISNYLNWYQQKPDGAIKLLIYDASTLYSGVPSRFSGSGSGTDFTLTISSLQPEDFATYYCQQYSKLPYTFGGGTKVEIK		
892	445-3 IgG4 (antibody, V domains shown) VH: QVQLVQSGAEVKKPGSSVKVSCKASGYKFTSYIIHWVRQAPGQGLEWMGYINPYNEGTRYNQKFQGRVTLTADKSTSTAYMELSSLRSEDTAVYYCARGYYGSSYAMDYWGQGTTVTVSS VL: DIQMTQSPSSLSASVGDRVTITCRASQGISNYLNWYQQKPDGAIKLLIYDASTLYSGVPSRFSGSGSGTDFTLTISSLQPEDFATYYCQQYSKLPYTFGGGTKVEIK		
